Measurements taken from patent US20160311919A1 (CELLDEX THERAPEUTICS, published 2016).
Several values for one entry are separate records, joined by “and”; a condition that tells them apart may be missing. Equal values may be shown once.

Legend:
[1] = target: T1, GPNMB (CG56972), native full-length protein on the cell surface or in cell lysates (human, UniProt Q14956 23-492); assay: cell-based or functional assay
T1 sequence: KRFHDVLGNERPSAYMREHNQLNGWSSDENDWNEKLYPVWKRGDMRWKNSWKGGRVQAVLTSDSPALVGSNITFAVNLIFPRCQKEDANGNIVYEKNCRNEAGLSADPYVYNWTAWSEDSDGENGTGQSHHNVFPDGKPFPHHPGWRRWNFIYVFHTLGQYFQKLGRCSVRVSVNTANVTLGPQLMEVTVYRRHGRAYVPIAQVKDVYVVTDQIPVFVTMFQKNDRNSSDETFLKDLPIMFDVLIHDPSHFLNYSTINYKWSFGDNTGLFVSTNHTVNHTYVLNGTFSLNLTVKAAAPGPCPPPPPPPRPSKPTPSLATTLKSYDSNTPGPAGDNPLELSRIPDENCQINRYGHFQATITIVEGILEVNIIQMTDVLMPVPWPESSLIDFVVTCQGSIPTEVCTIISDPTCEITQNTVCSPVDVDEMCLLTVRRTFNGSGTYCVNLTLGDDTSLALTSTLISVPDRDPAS

[2] = target: T1, GPNMB (CG56972), native full-length …; assay: FACS, UACC-62 cells, Ab 1 ug/mL
Description: Cells were washed twice with PBS (Ca and Mg free), incubated with Versene at 37° C. until cells detached, counted and aliquoted at 1 million cells per assay tube. Cells were then washed twice and resuspended in ice-cold FACS buffer (0.01M HEPES, 0.15M NaCl, 0.1% NaN₃ and 4% FBS). Primary antibody at 1 μg/mL was added to the cells. Cells were incubated on ice for 30 min, washed 2-3 times and resuspended in 1 mL of ice-cold FACS buffer. R-PE-conjugated goat anti-human antibody (Jackson ImmunoResearch Laboratory) at 1:100 dilution was added and cells were incubated on ice for 30 min. After washing 3 times with 1 mL of ice-cold FACS buffer, cells were fixed with 0.5-1 mL of 1% formaldehyde in PBS and analyzed by flow cytometry.

[3] = target: T1, GPNMB (CG56972), native full-length …; assay: cell-based or functional assay; remark: listed apart in the source
[4] = target: T1, GPNMB (CG56972), native full-length …; assay: cell-based or functional assay; remark: listed apart in the source
[5] = target: T1, GPNMB (CG56972), native full-length …; assay: cell-based or functional assay; remark: listed apart in the source
[6] = target: T1, GPNMB (CG56972), native full-length …; assay: cell-based or functional assay; remark: listed apart in the source
[7] = target: T1, GPNMB (CG56972), native full-length …; assay: cell-based or functional assay; remark: listed apart in the source
[8] = target: T2, CD3 on purified human T cells (human, UniProt P07766 23-207); assay: flow cytometry on purified human T cells, mouse anti-FLAG mAb then PE goat anti-mouse Ig F(ab')2
T2 construct: whole, on cells; also called CD3/TCR complex
T2 sequence (P07766 23-207): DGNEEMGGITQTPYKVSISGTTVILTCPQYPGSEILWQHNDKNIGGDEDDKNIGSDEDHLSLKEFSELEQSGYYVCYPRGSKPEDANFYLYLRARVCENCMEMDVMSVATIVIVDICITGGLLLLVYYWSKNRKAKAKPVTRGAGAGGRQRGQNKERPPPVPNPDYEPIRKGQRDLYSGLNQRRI
Excerpt: (Jackson ImmunoResearch, West Grove, Pa.) Ten thousand events were collected and analyzed on a FACSCalibur instrument (Becton Dickinson, Mountain View, Calif.).
To verify binding of the bi-scFv to human CD3 molecules, we used purified human T cells.

B1: Mab2.10.2 (antibody, human IgG2, V domains shown)
VH: QLVESGGGVVQPGRSLRLSCAASGFAFSSYGMHWVRQAPGKGLEWVAVISYDGNNKYYADSVKGRFTISRDNSKNTLYLQMNSLRAEDTAVYYCARDLVVRGIRGYYYYFGMDVWGQGTTVTVSS
VL: not shown
notes: Human IgG2 kappa from XenoMouse XMG2; also called CR011.2.10.2
killing of UACC-62 cells with saporin-conjugated secondary antibody, clonogenic, Ab 50 ng/mL [1]: > 70% | Geo Mean Ratio (relative to pK16) [2]: 2.6

B2: CR011-vcMMAE (Mab1.15.1 conjugated to monomethylauristatin E through a valine-citrulline linker) (other)
heavy: QVQLQESGPGLVKPSQTLSLTCTVSGGSISSFNYYWSWIRHHPGKGLEWIGYIYYSGSTYSNPSLKSRVTISVDTSKNQFSLTLSSVTAADTAVYYCARGYNWNYFDYWGQGTLVTVSSASTKGPSVFPLAPCSRSTSESTAALGCLVKDYFPEPVTVSWNSGALTSGVHTFPAVLQSSGLYSLSSVVTVPSSNFGTQTYTCNVDHKPSNTKVDKTVERKCCVECPPCPAPPVAGPSVFLFPPKPKDTLMISRTPEVTCVVVDVSHEDPEVQFNWYVDGVEVHNAKTKPREEQFNSTFRVVSVLTVVHQDWLNGKEYKCKVSNKGLPAPIEKTISKTKGQPREPQVYTLPPSREEMTKNQVSLTCLVKGFYPSDIAVEWESNGQPENNYKTTPPMLDSDGSFFLYSKLTVDKSRWQQGNVFSCSVMHEALHNHYTQKSLSLSPGK
VL: not shown
modifications: vcMMAE on cysteines of reduced disulfides, about 4 drugs per antibody (3.5-4.2); positions not given
IC50, clonogenic assay with 1.15.1-AE, G361 cells [3]: 1050 ng/mL and 6500 pM | IC50, clonogenic assay with 1.15.1-AE, RPMI-7951 cells [3]: 972 ng/mL and 6000 pM | IC50, clonogenic assay with 1.15.1-AE, SK-Mel 2 cells [3]: 111 ng/mL and 750 pM | IC50, clonogenic assay with 1.15.1-AE, SK-Mel 5 cells [3]: 237 ng/mL and 1600 pM | IC50, clonogenic assay with 1.15.1-AE, UACC-62 cells [3]: 697 ng/mL and 4300 pM | IC50, clonogenic assay with 1.15.1-AE, UACC-257 cells [3]: 825 ng/mL and 5500 pM | IC50, clonogenic assay with 1.15.1-AE, WM-266-4 cells [3]: 345 ng/mL and 2300 pM | IC50, clonogenic assay with 1.15.1-AE, SR cells [4]: 296 ng/mL and 2000 pM | IC50, clonogenic assay with 1.15.1-AE, THP-1 cells [4]: 207 ng/mL and 1400 pM | IC50, clonogenic assay with 1.15.1-AE, U937 cells [4]: 340 ng/mL and 2400 pM | CR011-AE IC50, clonogenic assay, SF-268 cells (poor expression) [5]: > 1.5 µg/mL | CR011-AE IC50, clonogenic assay, SF-539 cells [5]: 1.03 µg/mL | CR011-AE IC50, clonogenic assay, SK-MEL-2 cells [5]: 0.303 µg/mL | CR011-AE IC50, clonogenic assay, SNB-78 cells [5]: 0.449 µg/mL | CR011-AE IC50, clonogenic assay, U-118-MG cells [5]: 1.25 µg/mL | CR011-AE IC50, clonogenic assay, XF-498 cells [5]: 0.216 µg/mL | IC50 of colony formation (% of control), clonogenic assay after 96 h treatment of HEK293 cells transfected with GPNMB; the same conjugate on empty-vector cells prints >1000 [6]: 0.3 µg/mL | IC50 of colony formation (% of control), clonogenic assay, SK-Mel-2 cells with GPNMB knocked down by GPNMB siRNA [7]: 1 µg/mL | IC50 of colony formation (% of control), clonogenic assay, control-siRNA-transfected SK-Mel-2 cells [7]: 0.22 µg/mL | IC50 of colony formation (% of control), clonogenic assay, mock-transfected SK-Mel-2 cells [7]: 0.33 µg/mL

B3: Mab2.22.1 (antibody, human IgG2, V domains shown)
VH: QVQLEQSGPGLVKPSQNLSLTCTVSGGSISSGGYFWSWIRQHPGKGLEWIGYIYYSGNTYYNPSLKSRVTISVDTSKNQFSLKLSSVTAADTAVYYCARDYYYDTSGFSYRYDWYYGMDVWGQGTTVTVSS
VL: DIQLTQSPSSLSASVGDRVTITCRASQGIRNDLGWYQQKPGKAPKRLIYAASSLQNGVPSRFSGSGSGTEFTLTISSLQPEDFATYYCLQHNTYPAFGQGTKVEIKR
notes: Human IgG2 kappa from XenoMouse XMG2; also called CR011.2.22.1
killing of UACC-62 cells with saporin-conjugated secondary antibody, clonogenic, Ab 50 ng/mL [1]: > 70% | Geo Mean Ratio (relative to pK16) [2]: 4.46

B4: Mab1.15.1 (CR011), fully human IgG2 (antibody)
heavy: QVQLQESGPGLVKPSQTLSLTCTVSGGSISSFNYYWSWIRHHPGKGLEWIGYIYYSGSTYSNPSLKSRVTISVDTSKNQFSLTLSSVTAADTAVYYCARGYNWNYFDYWGQGTLVTVSSASTKGPSVFPLAPCSRSTSESTAALGCLVKDYFPEPVTVSWNSGALTSGVHTFPAVLQSSGLYSLSSVVTVPSSNFGTQTYTCNVDHKPSNTKVDKTVERKCCVECPPCPAPPVAGPSVFLFPPKPKDTLMISRTPEVTCVVVDVSHEDPEVQFNWYVDGVEVHNAKTKPREEQFNSTFRVVSVLTVVHQDWLNGKEYKCKVSNKGLPAPIEKTISKTKGQPREPQVYTLPPSREEMTKNQVSLTCLVKGFYPSDIAVEWESNGQPENNYKTTPPMLDSDGSFFLYSKLTVDKSRWQQGNVFSCSVMHEALHNHYTQKSLSLSPGK
VL: not shown
killing of UACC-62 cells with saporin-conjugated secondary antibody, clonogenic, Ab 50 ng/mL [1]: > 70%

B5: CR011 scFv (VL-L4-VH) Flag (scFv)
scFv: EIVMTQSPATLSVSPGERATLSCRASQSVDNNLVWYQQKPGQAPRLLIYGASTRATGIPARFSGSGSGTEFTLTISSLQSEDFAVYYCQQYNNWPPWTFGQGTKVEIKLSADDAKKDAAKKDDAKKDDAKKDLQVQLQESGPGLVKPSQTLSLTCTVSGGSISSFNYYWSWIRHHPGKGLEWIGYIYYSGSTYSNPSLKSRVTISVDTSKNQFSLTLSSVTAADTAVYYCARGYNWNYFDYWGQGTLVTVSSASDYKDDDDK
notes: C-terminal Flag tag is within the entry; also called CR011 single chain antibody; CR011 scFv monomer
binding result [8]: no binding (tested: 5 µg/sample/100 µl)

B6: Mab1.2.2 (antibody, human IgG2, V domains shown)
VH: ITLKESGPTLVKPTQTLTLTCTFSGFSLSAGGVGVGWIRQPPGKALEWLALIYWNDDKRYSPSLRSRLTITKDTSKNQVVLTITNMDPVDTATYYCAHSHYDYDWGSYFDYWGQGTLVTVSS
VL: DIVMTQTPLSLPVTPGEPASISCRSSQSLLDSDDGNTYLDWYLQKPGQSPQLLIYTLSYRASGVPDRFSGSGSGTDFTLNISRVEAEDVGVYYCMQRIEFPITFGQGTRLEIKR
notes: Human IgG2 kappa from XenoMouse XMG2; also called CR011.1.2.2
Geo Mean Ratio (relative to pK16) [2]: 1.24
